Measured values reported in paper PMC6545562, “Slx5/Slx8‐dependent ubiquitin hotspots on chromatin contribute to stress tolerance” (The EMBO Journal, 2019).

Target: T1, 6His-Slx5, recombinant (S. cerevisiae, UniProt P32828 1-619)
T1 construct: Slx5, S. cerevisiae; Host and purification are in the Appendix Supplementary Methods; source: recombinant
T1 sequence (looked up): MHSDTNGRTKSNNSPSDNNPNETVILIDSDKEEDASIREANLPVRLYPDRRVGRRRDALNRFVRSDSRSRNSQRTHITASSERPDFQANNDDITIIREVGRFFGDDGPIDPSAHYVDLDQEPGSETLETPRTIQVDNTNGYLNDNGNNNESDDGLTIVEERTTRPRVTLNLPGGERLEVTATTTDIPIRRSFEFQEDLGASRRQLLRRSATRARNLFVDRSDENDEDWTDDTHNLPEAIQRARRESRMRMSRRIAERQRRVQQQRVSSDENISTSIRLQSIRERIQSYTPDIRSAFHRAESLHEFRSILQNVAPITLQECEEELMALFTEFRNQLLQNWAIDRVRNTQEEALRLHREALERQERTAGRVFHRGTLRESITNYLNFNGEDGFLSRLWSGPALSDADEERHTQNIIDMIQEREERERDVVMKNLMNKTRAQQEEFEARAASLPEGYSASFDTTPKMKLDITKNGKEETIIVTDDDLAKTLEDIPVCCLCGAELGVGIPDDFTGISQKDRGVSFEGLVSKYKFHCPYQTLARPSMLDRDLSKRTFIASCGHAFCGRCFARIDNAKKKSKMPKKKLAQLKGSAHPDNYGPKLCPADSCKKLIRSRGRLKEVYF
Assay: pull-down; GST pull-down: recombinant purified GST or GST-Euc1 used to co-precipitate recombinant 6His-Slx5
Settings: both partners purified

B1: GST-Euc1, recombinant (natural protein, S. cerevisiae, UniProt Q04461 1-462, looked up)
chain: MPAREYNYVEGFGGYGSLDDDDSDRDSERRNHDLGQRTITTSPTGVSRHAALNRYMIPGRINPLFRPTDAAQPPIVSTSTSASATEPTNRIGPGRIKETPETNFNAFLIAQLTRMEEQNANLKEEISLMKKEQELFFLENQKKLEKGFKDINKYVEDVSAMKEVFKEVVGIMTGERIRFIDHTGENVTPQEAARVGNPSTSTQAHQSQSRSTNWQEYSMHASILAGDPRIKPEPGLSDFENGEYDGNESDENATTRNLPLNNPDSVSNADDSNNQLDGTGNENDIRNRRGCVGTSYKLNRAIQNVTDAAREYFEGLPGQPSVLSLERRYGSTWRRSAKERTLFTKRMTIIKRIIDIKDDPSKYGLSLPENKISRNQAIKVVENIRLGNNTFKGHHCRLSMSQLYEYFSKKMDKLEDYSLTLKRRGKPRRIFLLEEREARLSLQQPHSIPNSSTGTPEHDQDT
notes: Euc1 (Ymr111c), S. cerevisiae; Host and purification are in the Appendix Supplementary Methods; also called recombinant, non‐SUMOylated Euc1; source: recombinant, purified
- binding result: binds
